For the data set, the target named is T1, PUF4 RNA-binding domain (Saccharomyces cerevisiae, UniProt P25339 537-888).
T1 sequence: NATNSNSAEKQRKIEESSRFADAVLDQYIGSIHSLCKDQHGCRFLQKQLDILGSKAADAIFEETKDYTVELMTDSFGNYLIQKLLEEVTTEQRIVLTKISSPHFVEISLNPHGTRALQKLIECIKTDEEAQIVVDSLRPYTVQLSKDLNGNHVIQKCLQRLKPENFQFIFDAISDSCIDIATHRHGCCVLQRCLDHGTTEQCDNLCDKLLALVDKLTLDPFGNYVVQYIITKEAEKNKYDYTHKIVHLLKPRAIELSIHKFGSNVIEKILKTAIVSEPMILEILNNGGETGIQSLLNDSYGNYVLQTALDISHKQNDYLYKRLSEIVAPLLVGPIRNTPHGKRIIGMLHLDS
Put plainly: Mg; RNA-MaP; 20 mM Na-HEPES pH 7.4, 30 mM KOAc, 0.75 mM MgCl2, 0.1% Tween-20, 5% glycerol, 0.1 mg/mL BSA, 2 mM DTT; 25 C; 0.0125-409.6 nM protein. The conditions noted are these: tags: N-His6-TEV cleaved; C-SNAP kept, Cy3B-labelled; label: tethered on chip by stalled RNA polymerase.

Broadly, the Kd is the equilibrium constant for the complex coming apart. The low end stands for higher affinity, the high end for lower affinity.

Consider UCUCUUUGCAAAUUAUCUCUU (ssRNA) [Ib_S1_P4E.1_K4.1_C4.1_H4.1_[T3C]_A4.1_[T5A]_F4.1_T4.1], for which the dissociation constant Kd came out at 926 nM.

In turn, UCUCUUGCUGUAUAUUAUAUCUCUU (ssRNA) [Id_ii_S1_P4E.2_K4.1_C4.2_[C-2G]_[T-1C]_H4.1_A4.1_F4.1_T4.2_[G10T]_[T11A]] registered a Kd of 1.92 nM.

UCUCUUUAUGUAUAUUACUUCUCUU (ssRNA) [Id_ii_S1_P4E.2_K4.1_C4.2_[C-2T]_[T-1A]_H4.1_A4.1_F4.1_T4.2_[G10C]] showed a Kd of 1.03 nM.

UCUCUUGUUGUAUAUUAAUUCUCUU (ssRNA) [Id_ii_S1_P4E.2_K4.1_C4.2_[C-2G]_H4.1_A4.1_F4.1_T4.2_[G10A]] displayed a Kd of 1.25 nM.

Molecule UCUCUUUAUAUAGUAUCUCUU (ssRNA) [Ib_S1_P4E.1_K4.1_C4.1_H4.1_[G2A]_A4.1_[T7G]_F4.1_T4.1] registered a Kd of 50.5 nM.

For UCUCUUUGUGUAUAUUAUGUCUCUU (ssRNA) [Id_ii_S1_P4E.2_K4.1_C4.2_[C-2T]_[T-1G]_H4.1_A4.1_F4.1_T4.2_[G10T]_[T11G]], the Kd was determined as 0.968 nM.

For UCUCUUGCUGUAUAUUAUCUCUCUU (ssRNA) [Id_ii_S1_P4E.2_K4.1_C4.2_[C-2G]_[T-1C]_H4.1_A4.1_F4.1_T4.2_[G10T]_[T11C]], binding was characterised by a dissociation constant (Kd) of 1.14 nM. The Kd values of the last two molecules are within 1.5-fold of each other.

On to UCUCUUUUUGUAUAUUACCUCUCUU (ssRNA) [Id_ii_S1_P4E.2_K4.1_C4.2_[C-2T]_H4.1_A4.1_F4.1_T4.2_[G10C]_[T11C]], for which the equilibrium dissociation constant (Kd) came out at 1.09 nM.

With UCUCUUUCUGUAUAUUACCUCUCUU (ssRNA) [Id_ii_S1_P4E.2_K4.1_C4.2_[C-2T]_[T-1C]_H4.1_A4.1_F4.1_T4.2_[G10C]_[T11C]], the affinity, expressed as Kd, was 0.848 nM.

UCUCUUUGUAUACUAUCUCUU (ssRNA) [Ic_S1_P4E.1_K4.1_C4.1_H4.1_A4.1_[T7C]_F4.1_T4.1]: binding was characterised by a dissociation constant (Kd) of 0.741 nM.

In the case of UCUCUUUAUAUAAUAUCUCUU (ssRNA) [Ib_S1_P4E.1_K4.1_C4.1_H4.1_[G2A]_A4.1_[T7A]_F4.1_T4.1], the Kd came out at 61.4 nM.

Consider UCUCUUUAUGUAUAUUACCUCUCUU (ssRNA) [Id_ii_S1_P4E.2_K4.1_C4.2_[C-2T]_[T-1A]_H4.1_A4.1_F4.1_T4.2_[G10C]_[T11C]], for which the dissociation constant (Kd) amounted to 0.854 nM.

In turn, UCUCUUGUUGUAUAUUAUGUCUCUU (ssRNA) [Id_ii_S1_P4E.2_K4.1_C4.2_[C-2G]_H4.1_A4.1_F4.1_T4.2_[G10T]_[T11G]] displayed a Kd of 1.07 nM.

UCUCUUGCUGUAUAUUAUGUCUCUU (ssRNA) [Id_ii_S1_P4E.2_K4.1_C4.2_[C-2G]_[T-1C]_H4.1_A4.1_F4.1_T4.2_[G10T]_[T11G]] returned a Kd of 2.24 nM.

Regarding UCUCUUUUUGUAUAUUAUGUCUCUU (ssRNA) [Id_ii_S1_P4E.2_K4.1_C4.2_[C-2T]_H4.1_A4.1_F4.1_T4.2_[G10T]_[T11G]], the Kd amounted to 0.981 nM.

UCUCUUUCUGUAUAUUAAGUCUCUU (ssRNA) [Id_ii_S1_P4E.2_K4.1_C4.2_[C-2T]_[T-1C]_H4.1_A4.1_F4.1_T4.2_[G10A]_[T11G]] gave a Kd of 2.74 nM.

Regarding UCUCUUGUUGUAUAUUAUCUCUCUU (ssRNA) [Id_ii_S1_P4E.2_K4.1_C4.2_[C-2G]_H4.1_A4.1_F4.1_T4.2_[G10T]_[T11C]], binding was characterised by a dissociation constant (Kd) of 0.891 nM.

In the case of UCUCUUUCUGUAUAUUAACUCUCUU (ssRNA) [Id_ii_S1_P4E.2_K4.1_C4.2_[C-2T]_[T-1C]_H4.1_A4.1_F4.1_T4.2_[G10A]_[T11C]], the Kd was found to be 0.887 nM.

UCUCUUUGUGUAUAUUAGUUCUCUU (ssRNA) [Id_ii_S1_P4E.2_K4.1_C4.2_[C-2T]_[T-1G]_H4.1_A4.1_F4.1_T4.2] gave a Kd of 0.304 nM.

Take UCUCUUGCUGUAUAUUACCUCUCUU (ssRNA) [Id_ii_S1_P4E.2_K4.1_C4.2_[C-2G]_[T-1C]_H4.1_A4.1_F4.1_T4.2_[G10C]_[T11C]]: the Kd is 0.957 nM.

In turn, UCUCUUUUUGUAUAUUAAGUCUCUU (ssRNA) [Id_ii_S1_P4E.2_K4.1_C4.2_[C-2T]_H4.1_A4.1_F4.1_T4.2_[G10A]_[T11G]] gave an equilibrium dissociation constant (Kd) of 3.68 nM.

As to UCUCUUUAUGUAUAUUAUGUCUCUU (ssRNA) [Id_ii_S1_P4E.2_K4.1_C4.2_[C-2T]_[T-1A]_H4.1_A4.1_F4.1_T4.2_[G10T]_[T11G]], the affinity, expressed as Kd, was 0.98 nM.

For the molecule UCUCUUUAUAUACUAUCUCUU (ssRNA) [Ib_S1_P4E.1_K4.1_C4.1_H4.1_[G2A]_A4.1_[T7C]_F4.1_T4.1], binding was put at a Kd of 17.8 nM.

Consider UCUCUUUUUGUAUAUUAUCUCUCUU (ssRNA) [Id_ii_S1_P4E.2_K4.1_C4.2_[C-2T]_H4.1_A4.1_F4.1_T4.2_[G10T]_[T11C]], for which the affinity, expressed as Kd, was 0.856 nM.

Molecule UCUCUUUCUGUAUAUUACUUCUCUU (ssRNA) [Id_ii_S1_P4E.2_K4.1_C4.2_[C-2T]_[T-1C]_H4.1_A4.1_F4.1_T4.2_[G10C]] displayed a Kd of 0.672 nM.

The molecule UCUCUUUGUGUAUAUUAUCUCUCUU (ssRNA) [Id_ii_S1_P4E.2_K4.1_C4.2_[C-2T]_[T-1G]_H4.1_A4.1_F4.1_T4.2_[G10T]_[T11C]] came in with a Kd of 1.06 nM.

Molecule UCUCUUGUUGUAUAUUAAAUCUCUU (ssRNA) [Id_ii_S1_P4E.2_K4.1_C4.2_[C-2G]_H4.1_A4.1_F4.1_T4.2_[G10A]_[T11A]] registered a dissociation constant (Kd) of 1.78 nM. This Kd lies about 1.7-fold higher than the previous one.

With UCUCUUUAUGUAUAUUAUCUCUCUU (ssRNA) [Id_ii_S1_P4E.2_K4.1_C4.2_[C-2T]_[T-1A]_H4.1_A4.1_F4.1_T4.2_[G10T]_[T11C]], the Kd turned out to be 0.896 nM. This Kd is about 2-fold lower than that of the molecule before.

As for UCUCUUUAUGUAUAUUAAAUCUCUU (ssRNA) [Id_ii_S1_P4E.2_K4.1_C4.2_[C-2T]_[T-1A]_H4.1_A4.1_F4.1_T4.2_[G10A]_[T11A]], the Kd came to 1.94 nM.

The values are drawn from article PMC9352680, “A comprehensive thermodynamic model for RNA binding by the Saccharomyces cerevisiae Pumilio protein PUF4”.
